7 molecules from paper PMC3591310, “Characterization and Functional Analysis of Four Glutathione S-Transferases from the Migratory Locust, Locusta migratoria” (PLoS ONE, 2013) can be followed below.

Read-outs that look alike come from different tables or passages of the source.

Data set [1] concerns the target T1, LmGSTu1 (Locusta migratoria, UniProt F4YUI9).
T1 construct: E. coli BL21 (DE3)
T1 sequence (F4YUI9 1-214): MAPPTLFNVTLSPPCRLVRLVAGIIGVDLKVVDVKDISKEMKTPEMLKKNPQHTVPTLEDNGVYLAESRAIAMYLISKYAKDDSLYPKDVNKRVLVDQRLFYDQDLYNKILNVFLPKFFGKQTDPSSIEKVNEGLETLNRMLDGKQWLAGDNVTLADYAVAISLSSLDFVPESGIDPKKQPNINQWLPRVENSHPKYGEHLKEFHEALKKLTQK
In words: GSH conjugation, absorbance […] nm, non-linear regression. The settings on record: read-out: CDNB / Km; 5 mM GSH, pH 7.5, 28°C; apparent. It counts as biochemical.

The target in data set [2] is T2, LmGSTd1 (Locusta migratoria, UniProt E7BTM5).
T2 construct: E. coli JM109
T2 sequence (E7BTM5 1-218): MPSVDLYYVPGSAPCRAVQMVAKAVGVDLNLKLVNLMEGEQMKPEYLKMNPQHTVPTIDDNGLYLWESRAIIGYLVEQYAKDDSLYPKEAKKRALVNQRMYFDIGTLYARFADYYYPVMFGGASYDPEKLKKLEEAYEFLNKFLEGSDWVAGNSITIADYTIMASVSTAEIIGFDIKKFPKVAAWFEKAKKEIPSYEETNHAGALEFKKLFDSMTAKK
Described as above. It is filed as biochemical. The settings on record: read-out: CDNB / Km; 5 mM GSH, pH 7.5, 28°C; apparent.

Data set [3] addresses T3, LmGSTt1 (Locusta migratoria, UniProt F4YUJ7).
T3 construct: E. coli BL21 (DE3)
T3 sequence (F4YUJ7 1-231): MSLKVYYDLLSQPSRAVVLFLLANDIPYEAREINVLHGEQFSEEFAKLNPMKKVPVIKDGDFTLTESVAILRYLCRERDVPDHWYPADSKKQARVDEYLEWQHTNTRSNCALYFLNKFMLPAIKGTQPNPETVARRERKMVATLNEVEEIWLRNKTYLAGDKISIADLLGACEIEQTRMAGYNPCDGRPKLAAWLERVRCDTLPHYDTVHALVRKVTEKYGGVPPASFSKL
The data set is described as above. It counts as biochemical. To be noted: read-out: CDNB / Km; 5 mM GSH, pH 7.5, 28°C; apparent.

The target in data set [4] is T4, LmGSTs5 (Locusta migratoria, UniProt F4YUJ4).
T4 construct: E. coli JM109
T4 sequence (F4YUJ4 1-202): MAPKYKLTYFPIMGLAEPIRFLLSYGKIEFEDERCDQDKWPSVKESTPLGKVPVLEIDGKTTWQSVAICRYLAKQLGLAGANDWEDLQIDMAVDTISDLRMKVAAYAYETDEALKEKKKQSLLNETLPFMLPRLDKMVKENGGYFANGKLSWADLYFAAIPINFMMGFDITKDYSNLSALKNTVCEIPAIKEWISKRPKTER
The description is as above. To be noted: read-out: CDNB / Km; 5 mM GSH, pH 7.5, 28°C; apparent. It is filed as biochemical.

Data set [5] concerns the target T3, LmGSTt1. Kind of data set: inhibition of CDNB-GSH conjugation, absorbance […] nm. It is filed as biochemical. The settings on record: read-out: I50.
The target of data set [6] is T1, LmGSTu1. Described as above. It is filed as biochemical. The settings on record: read-out: I50.
Data set [7] deals with T2, LmGSTd1. The description is as above. It counts as biochemical. To be noted: read-out: I50.
Data set [8] deals with T4, LmGSTs5. The data set is described as above. The settings on record: read-out: I50. It is filed as biochemical.
Substrate in data set [9]: O=[N+]([O-])c1ccc(CCl)cc1
Kind of data set: purified protein. The settings on record: 5 mM GSH, pH 7.5, 28°C, apparent.

Substrate in data set [10]: O=[N+]([O-])c1ccc(CCl)cc1
Kind of data set: purified protein. It is filed as biochemical, Locusta migratoria. The settings on record: 5 mM GSH, pH 7.5, 28°C, apparent.

Substrate in data set [11]: O=[N+]([O-])c1ccc(Cl)c(Cl)c1
Kind of data set: purified protein. It is filed as biochemical, Locusta migratoria. To be noted: 5 mM GSH, pH 7.5, 28°C, apparent.

Substrate in data set [12]: O=[N+]([O-])c1ccc(Cl)c(Cl)c1
Kind of data set: purified protein. The settings on record: 5 mM GSH, pH 7.5, 28°C, apparent.

Where [13] appears, read: 2 mM CDNB, 5 mM GSH, 0.1 M phosphate pH 7.5, 28°C.

Take `O=[N+]([O-])c1ccc(Cl)c([N+](=O)[O-])c1` [CDNB, 1-chloro-2,4-dinitrobenzene]: the Km was determined as 250 ± 25 µM at LmGSTu1 [1], 500 ± 25 µM on LmGSTd1 [2], 4730 ± 350 µM at LmGSTt1 [3] and 1170 ± 290 µM at LmGSTs5 [4].

`C=C(CC)C(=O)c1ccc(OCC(=O)O)c(Cl)c1Cl` [ethacrynic acid]: the IC50 at LmGSTt1 [5] came out at 4.7 µM; at LmGSTu1 [6] it was 3.27 µM; on LmGSTd1 [7], 2.2 µM; on LmGSTs5 [8], 33.8 µM.

As for reactive blue, the IC50 on LmGSTt1 [5] (setting [13]) was found to be 12.4 µM; on LmGSTu1 [6] (setting [13]), 3.4 µM; on LmGSTd1 [7] (setting [13]), 4.58 µM; at LmGSTs5 [8] (setting [13]), 0.98 µM.

B1: LmGSTt1 (Locusta migratoria) (protein)
chain: T3 sequence (F4YUJ7 1-231)
As for B1, in “purified protein [9]”, the Km came to 7850 ± 1080 µM and the Vmax was determined as 0.00143 µmol/min/mg.

B2: LmGSTd1 (Locusta migratoria) (protein)
chain: T2 sequence (E7BTM5 1-218)
notes: E. coli JM109
For the molecule B2, in “purified protein [10]”, the Km amounted to 6380 ± 570 µM and the Vmax amounted to 0.049 µmol/min/mg. Moreover, in the data set “purified protein [11]”, the Km worked out at 1000 ± 87 µM and the Vmax was 0.0004 µmol/min/mg.

B3: LmGSTs5 (Locusta migratoria) (protein)
chain: T4 sequence (F4YUJ4 1-202)
In the case of B3, in the data set “purified protein [9]”, the Km is 470 ± 83 µM and the Vmax was determined as 0.156 µmol/min/mg. In addition, in the data set “purified protein [12]”, the Km was determined as 1730 ± 240 µM and the Vmax was 0.00741 µmol/min/mg.

B4: LmGSTu1 (Locusta migratoria) (protein)
chain: T1 sequence (F4YUI9 1-214)
Regarding B4, in the data set “purified protein [9]”, the Km was 1580 ± 170 µM and the Vmax turned out to be 0.00677 µmol/min/mg. In the data set “purified protein [12]”, the Km is 730 ± 64 µM and the Vmax turned out to be 0.00098 µmol/min/mg.
